Usually IC50 stands for the midpoint of a concentration-inhibition curve. One may read the Kd as the free concentration of one partner at which half of the binding sites on the other are occupied at equilibrium, for simple one-to-one binding. Read a high Kd as weaker binding.

Values joined by “and” are separate entries in the source; they are usually repeats but may differ in a detail not shown here. Equal entries are not always repeated. Bridge positions count the residues as written; N and C are the ends. Peptide text beside a SMILES is read from it.

This note sets out measurements from US20070197430A1, “Conjugates And Therapeutic Uses Thereof” (priority 2004, published 2007).

Series [1] in a line: Circular dichroism, alpha-helical content of peptides. It is filed as physicochemical. Conditions: 30% aqueous trifluoroethanol. On the procedure: Circular dichroism spectra were obtained using a Jasco Model J-710 spetropolarimeter at 20° C. using the following parameters: path length, 2 mm; step resolution, 0.1 nm; speed, 20 nm/min, accumulation, 4; response, 1 second; bandwidth, 1.0 nm. The peptides were analysed at a concentration of 0.5 mg/mL in 30% aqueous TFE. The alpha-helical content of the peptides were determined by methods described in Yang et al (1986), involving comparisons of spectra with model helical peptides.
For orientation: Circular dichroism is the unequal absorption of left and right circularly polarised light.

In series [2] the target is T1, Bcl-w ΔC29 (Homo sapiens, UniProt Q92843).
T1 sequence (Q92843 1-164 limits assumed): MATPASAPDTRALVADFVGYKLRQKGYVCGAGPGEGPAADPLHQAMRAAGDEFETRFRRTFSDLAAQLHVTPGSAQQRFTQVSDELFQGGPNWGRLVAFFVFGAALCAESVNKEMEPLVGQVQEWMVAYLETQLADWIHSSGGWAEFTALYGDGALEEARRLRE
The series is described as follows: Alphascreen GST competition assay with biotinylated Bim BH3-26 peptide. It is filed as binding. The settings on record: Example 14, two values given per peptide. (In Alpha technology, singlet oxygen from a donor bead excites a nearby acceptor bead.)

The target of series [3] is T2, Bcl-xL ΔC25 (Homo sapiens, UniProt Q07817). The series is described as follows: Alphascreen GST competition assay with biotinylated BimBH3 peptide. It is filed as binding. The settings on record: Example 14, two values given per peptide. As for the experimental part:
(§1) Using solution competition assays and Alphascreen GST-detection as described below, the constrained peptide of Example 2 (peptide A) was assessed for competition binding to Bcl-2 homologues, Bcl-w ΔC29, Bcl-xL ΔC25 and Mcl-1 ΔC23.
(§2) All the assays were performed using 384-well white plates in a total volume of 20 μL. The assay buffer is 50 mM HEPES, 10 mM DTT, 100 mM NaCl, 0.05% Tween 20, 0.1 mg/mL casein, pH 7.4. The bead buffer is 50 mM Tris, 1% Tween 20, 0.1 mg/mL casein, pH 7.5.
(§3) For the GST-Bcl-wΔC29 protein assay, protein (0.10 nM), acceptor beads (10 μg/mL), 50% assay buffer and 50% bead buffer were incubated together for 30 minutes. At the same time, biotinylated BimBH3 peptide (Biotin-[…]-OH) (3 nM), donor beads (10 μg/mL), 50% assay buffer and 50% bead buffer were incubated to get for 30 minutes. For the competition binding assay, protein acceptor bead solution (10 μL) and the candidate compound, A, L1 or L2, were added into each well and incubated for 30 minutes, then biotinylated BimBH3 peptide donor bead solution (10 μL) was added into each well. The total DMSO concentration in each well was then adjusted to 0.5% to 2%. Plates were covered with aluminium foil and incubated at room temperature for 4 hours before reading in a Packard Fusion™ reader with excitation at 680 nm and emission at 520-620 nm. […]
Target sequence in this assay (Q07817 1-208 limits assumed): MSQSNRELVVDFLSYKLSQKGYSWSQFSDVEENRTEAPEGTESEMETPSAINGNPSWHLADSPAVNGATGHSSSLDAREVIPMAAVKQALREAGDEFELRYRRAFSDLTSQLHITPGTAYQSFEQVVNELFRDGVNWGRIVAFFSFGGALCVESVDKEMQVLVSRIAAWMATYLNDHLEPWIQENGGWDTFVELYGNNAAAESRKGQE

Series [4] concerns Mcl-1 ΔC23. The series is described as follows: Alphascreen GST competition assay with biotinylated BakBH3 peptide. It is filed as binding. The settings on record: Example 14, two values given per peptide. As for the experimental part: as §1, §2, §3
Series [5] has as its target T2, Bcl-xL ΔC25. The series is described as follows: Surface plasmon resonance direct binding (Biacore S51). The settings on record: SPR dissociation constant. The source says:
(§4) In separate assay experiments, surface plasmon resonance (SPR) experiments using a Biacore S51 Biosensor were used as proof of direct binding of peptide A to Bcl-w ΔC29, Bcl-xL ΔC25 and Mcl-1 ΔC23. This technique also has the advantage of yielding dissociation constants, which are shown below.
For orientation: Surface plasmon resonance follows binding to a sensor surface in real time, without labels.

For series [6], the target named is Mcl-1 ΔC23. Described as above. Conditions: SPR dissociation constant.
Excerpt: as §4

In series [7] the target is T3, Bcl-2 ΔC22 (Homo sapiens, UniProt P10415). As to the kind of experiment: Competition assay with biotinylated Bim-BH3 peptide. The series is classed as binding. The settings on record: text says Bcl-2 and Bcl-xL. The source says: Alphascreen (Amplified Luminsecent Proximity Homogenous Assay) is a bead based technology which measures a biological interaction between molecules. The assay consists of two hydrogel coated beads which, when bought into close proximity by a binding interaction, allow a transfer of singlet oxygen from a donor bead to an acceptor bead.
Upon binding a photosensitiser in the donor bead converts ambient oxygen to a more excited singlet state. This singlet oxygen then diffuses across to react with a chemiluminescer in the acceptor bead. Fluorophores within the same bead are activated, resulting in the emission of light.
Target sequence in this assay (P10415 1-217 limits assumed): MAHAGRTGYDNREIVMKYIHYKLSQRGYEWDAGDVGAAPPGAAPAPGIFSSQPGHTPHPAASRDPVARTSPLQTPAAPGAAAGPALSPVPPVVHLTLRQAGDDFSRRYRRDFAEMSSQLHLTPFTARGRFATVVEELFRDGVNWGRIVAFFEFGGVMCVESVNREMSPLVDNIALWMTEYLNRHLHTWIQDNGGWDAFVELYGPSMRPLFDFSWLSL

Series [8] concerns the target T2, Bcl-xL ΔC25. As to the kind of experiment: SPR, Biacore S51, direct binding.
The target in series [9] is Mcl-1 ΔC23 (UniProt Q07820). As to the kind of experiment: SPR, Biacore S51, direct binding.
The target of series [10] is 6-His tagged Bcl w delta C10 protein (UniProt Q92843). As to the kind of experiment: competition assay; competitor: biotinylated Bim-BH3 peptide.
Series [11] deals with T3, Bcl-2 ΔC22. The series is described as above.
Series [12] addresses GST tagged Bcl w delta C29 protein (UniProt Q92843). Described as above.
Series [13] has as its target Mcl-1 ΔC23 (UniProt Q07820). The series is described as follows: AlphaScreen GST detection; competitor: biotinylated BakBH3 peptide.
The target of series [14] is T2, Bcl-xL ΔC25. The series is described as follows: AlphaScreen GST detection; competitor: biotinylated BimBH3 peptide.
Series [15] has as its target GST tagged Bcl w delta C29 protein (UniProt Q92843). The description is as above.
Series [16] deals with Mcl-1 ΔC23 (UniProt Q07820). As to the kind of experiment: AlphaScreen GST detection; competitor: biotinylated BakBH3 peptide; second of two values.
Series [17] has as its target T2, Bcl-xL ΔC25. The series is described as follows: AlphaScreen GST detection; competitor: biotinylated BimBH3 peptide; second of two values.
For series [18], the target named is GST tagged Bcl w delta C29 protein (UniProt Q92843). Described as above.

As for `CC[C@H](C)[C@H](NC(C)=O)C(=O)N[C@@H](C)C(=O)N[C@@H](CCC(N)=O)C(=O)N[C@@H](CCC(=O)O)C(=O)N[C@@H](CC(C)C)C(=O)N[C@@H](CCCNC(=N)N)C(=O)N[C@@H](CCCNC(=N)N)C(=O)N[C@H](C(=O)NCC(=O)N[C@@H](CC(=O)O)C(=O)N[C@@H](CCC(=O)O)C(=O)N[C@@H](Cc1ccccc1)C(N)=O)[C@@H](C)CC` [Peptide L1] (Ac-IAQELRRIGDEF-NH2), the “% Helicity” value in [1] was determined as 9%. For the same molecule, the IC50 in series [2] is 820 nM and 800 nM; in [3] it was 7000 nM and 6300 nM; in series [4], 400 nM and 360 nM. The Kd in series [5] stood at 5200 nM; in [6], 1200 nM.
As for `CC[C@H](C)[C@H](NC(C)=O)C(=O)N[C@@H](C)C(=O)N[C@@H](CCC(N)=O)C(=O)N[C@H]1CCC(=O)NCCCCCCNC(=O)CC[C@@H](C(=O)N[C@@H](Cc2ccccc2)C(N)=O)NC(=O)[C@H](CC(=O)O)NC(=O)CNC(=O)[C@H]([C@@H](C)CC)NC(=O)[C@H](CCCNC(=N)N)NC(=O)[C@H](CCCNC(=N)N)NC(=O)[C@H](CC(C)C)NC1=O` [C, Ac-IAQ-E-LRRIGD-E-F-NH2] (HELM PEPTIDE1{[ac].I.A.Q.E.L.R.R.I.G.D.E.F.[am]}|CHEM1{[C(CCCN[*:2])CCN[*:1]]}$PEPTIDE1,CHEM1,5:R3-1:R1|PEPTIDE1,CHEM1,12:R3-1:R2$$$V2.0), the “% Helicity” value in [1] is recorded as 39%. Moreover, the “affinity over the unconstrained 12-mer, in words” value in series [7] is “outstanding increases in affinity”.
With `CC[C@H](C)[C@H](NC(C)=O)C(=O)N[C@@H](C)C(=O)N[C@@H](CCC(N)=O)C(=O)N[C@@H](CCC(N)=O)C(=O)N[C@@H](CC(C)C)C(=O)N[C@@H](CCCNC(=N)N)C(=O)N[C@@H](CCCNC(=N)N)C(=O)N[C@H](C(=O)NCC(=O)N[C@@H](CC(=O)O)C(=O)N[C@@H](CCC(N)=O)C(=O)N[C@@H](Cc1ccccc1)C(N)=O)[C@@H](C)CC` [Peptide L2] (Ac-IAQQLRRIGDQF-NH2), the IC50 in [2] was 120 nM; in series [3], 960 nM and 890 nM; in series [4] it was 650 nM and 660 nM. In addition, the Kd was found to be 370 nM in series [5] and 920 nM in [6].
Consider Ac-IAQELRRIGDEF-NH2 (linker 4-11 via 1,5‑diaminopentane) [Acetyl-IAQ(E1)LRRIGD(E2)F-amide with a 1,5-diaminopentane linker (second position)], for which the Kd in series [8] and in [9] was 10 nM each time. The IC50 in series [10] was 65 nM; in [11], 0.29 µM; in [12], 150 nM; in series [13], 3 nM; in [14], 0.057 µM; in series [15], 40 nM. The IC50 was 3 nM in series [16], 0.054 µM in series [17] and 34 nM in series [18].
For the molecule Ac-IAQELRRIGDEF-NH2 [Linear 12mer Ac-…-NH2], the values for the Kd in [8] and in [9] were 5200 nM and 1200 nM, respectively. In addition, the IC50 in series [10] is 870 nM; in series [11], 240 µM; in series [12], 4700 nM; in [13] it was 400 nM; in series [14], 7 µM; in series [15], 820 nM. Besides, the IC50 turned out to be 360 nM in series [16], 6.3 µM in [17] and 800 nM in series [18].
